Data published in patent CN116789836A (ZHEJIANG SHIMAI PHARMACEUTICAL CO LTD, dated 2023).
Changes are numbered by the printed parent chain.

T1: 效应细胞的CD3抗原 (CD3 on Jurkat-NFAT-CD3 cells and human T cells) (human)
T1 chain: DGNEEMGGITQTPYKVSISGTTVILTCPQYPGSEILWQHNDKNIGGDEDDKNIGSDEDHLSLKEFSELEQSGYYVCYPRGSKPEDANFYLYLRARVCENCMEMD

T2: 细胞表面表达的DLL3 (H82 and LS174T-DLL3 cells) (human, UniProt Q9NYJ7 27-618)
T2 sequence (looked up): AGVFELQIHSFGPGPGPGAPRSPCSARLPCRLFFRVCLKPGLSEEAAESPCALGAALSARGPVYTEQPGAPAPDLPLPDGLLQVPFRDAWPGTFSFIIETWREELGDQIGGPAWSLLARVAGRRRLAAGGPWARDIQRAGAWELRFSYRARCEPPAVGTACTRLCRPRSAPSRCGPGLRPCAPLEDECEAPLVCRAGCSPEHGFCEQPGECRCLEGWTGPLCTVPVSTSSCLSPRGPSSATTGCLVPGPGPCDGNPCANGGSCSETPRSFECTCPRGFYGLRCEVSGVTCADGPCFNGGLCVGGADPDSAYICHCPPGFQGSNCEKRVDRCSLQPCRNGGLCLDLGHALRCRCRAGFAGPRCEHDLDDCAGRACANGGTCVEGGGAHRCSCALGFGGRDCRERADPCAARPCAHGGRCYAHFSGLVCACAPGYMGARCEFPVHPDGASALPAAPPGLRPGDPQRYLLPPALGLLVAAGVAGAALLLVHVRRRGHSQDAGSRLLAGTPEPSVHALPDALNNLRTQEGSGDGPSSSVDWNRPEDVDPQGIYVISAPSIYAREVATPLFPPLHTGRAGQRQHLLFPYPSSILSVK

T3: 人CD3蛋白 (human)
T3 chain: T1 chain

T4: 人DLL3蛋白(His标签) (human, UniProt Q9NYJ7 27-479)
T4 construct: Bought protein (ACRO); also called 重组人DLL3; human DLL3 protein (His tag); not shown: His tag
T4 sequence (looked up): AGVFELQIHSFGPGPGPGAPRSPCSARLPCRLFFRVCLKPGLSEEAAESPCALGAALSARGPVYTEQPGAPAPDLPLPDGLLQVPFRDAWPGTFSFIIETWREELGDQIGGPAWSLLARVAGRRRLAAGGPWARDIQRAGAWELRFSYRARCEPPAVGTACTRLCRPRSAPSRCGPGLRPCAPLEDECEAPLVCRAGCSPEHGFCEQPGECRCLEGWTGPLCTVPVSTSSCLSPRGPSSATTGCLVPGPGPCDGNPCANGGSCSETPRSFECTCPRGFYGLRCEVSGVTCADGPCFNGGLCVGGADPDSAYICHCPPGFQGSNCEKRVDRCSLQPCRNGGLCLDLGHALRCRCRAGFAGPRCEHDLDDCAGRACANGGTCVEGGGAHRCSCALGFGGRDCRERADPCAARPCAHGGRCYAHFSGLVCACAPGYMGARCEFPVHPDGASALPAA

B1: DLL3-1G2H1L1-M6MV1-1 (bispecific antibody, human IgG1, kappa)
light: QVQLVQSGAELKKPGASVKLSCKASGYSFTSYWMNWVRQAPGQGLEWMGMIHPSDSETRLNQKFKDRVTLTVDKSSSTAYMELSSLTSEDTAVYYCARWDYYDYAWFAYWGQGTLVTVSSGGGGSGGGGSGGGGSDVVMTQTPLSLPVTLGQPASISCRSSQSIVHSNGDTYLEWYLQKPGQSPQLLIYKVSNRFSGVPDRFSGSGSGTDFTLKISRVEAEDVGVYYCFQGSHVPWTFGQGTKVEIKGSGGGGSGGGGSEIVVTQSPATLSVSPGERATLSCRSSTGAVTTSNYANWVQQKPGQAPRGLIGGANKRAPGVPARFSGSLSGDEATLTISSLQSEDFAVYYCALWYSNLWVFGQGTKLEIKRTVAAPSVFIFPPSDEQLKSGTASVVCLLNNFYPREAKVQWKVDNALQSGNSQESVTEQDSKDSTYSLSSTLTLSKADYEKHKVYACEVTHQGLSSPVTKSFNRGECGGSGSCPPCPAPEAAGAPSVFLFPPKPKDTLMISRTPEVTCVVVDVSHEDPEVKFNWYVDGVEVHNAKTKPREEQYNSTYRVVSVLTVLHQDWLNGKEYKCKVSNKALGAPIEKTISKAKGQPREPQVYTLPPSRDELTKNQVSLLCLVKGFYPSDIAVEWESNGQPENNYKTTPPVLDSDGSFFLHSKLTVDKSRWQQGNVFSCSVMHEALHNHYTQKSLSLSPG
heavy: EVQLVESGGGLVQPGGSLRLSCAASGFTFNTYAMNWVRQAPGKGLEWVARIRSKYNNYATYYADSVKGRFTISRDDSKNTLYLQMNSLRAEDTAVYYCARHGNFGSSYVSYFAYWGQGTTVTVSSASTKGPSVFPLAPSSKSTSGGTAALGCLVKDYFPEPVTVSWNSGALTSGVHTFPAVLQSSGLYSLSSVVTVPSSSLGTQTYICNVNHKPSNTKVDKKVEPKSCDKTHTCPPCPAPEAAGAPSVFLFPPKPKDTLMISRTPEVTCVVVDVSHEDPEVKFNWYVDGVEVHNAKTKPREEQYNSTYRVVSVLTVLHQDWLNGKEYKCKVSNKALGAPIEKTISKAKGQPREPQVYTLPPSRDELTKNQVSLLCLVKGFYPSDIAVEWESNGQPENNYKTTPPVLDSDGSFFLHSKLTVDKSRWQQGNVFSCSVMHEALHNHYTQKSLSLSPG
notes: also called DLL3×CD3 BiTE
B2: DLL3-1G2H2L1-M6MV1-1 (bispecific antibody, human IgG1, kappa)
light: B1 light with K13R, M48I, R67K, V68A, T91S
heavy: B1 heavy
notes: also called DLL3×CD3 BiTE
B3: DLL3-1G2 mAb (antibody, human IgG1, kappa, V domains shown)
VH: QVQLQQPGAELVRPGASVKLSCKASGYSFTSYWMNWVKQRPGQGLEWIGMIHPSDSETRLNQKFKDKATLTVDKSSSTAYMQLSSPTSEDSAVYYCARWDYYDYAWFAYWGQGTLVTVSA
VL: DVLMTQTPLSLPVSLGDQASISCRSSQSIVHSNGDTYLEWYLQKPGQSPNLLIYKVSNRFSGVPDRFSGSGSGTDFTLKISRVEAEDLGVYHCFQGSHVPWTFGGGTKLEIKR
notes: Chimeric full IgG1: Fab of murine clone 1G2 fused to human IgG1 Fc; also called 抗DLL3单克隆抗体

What was measured:
[1] = target: T1, 效应细胞的CD3抗原 (CD3 on Jurkat-NFAT-CD3 …); assay: cell-based or functional assay
[2] = target: T2, 细胞表面表达的DLL3 (H82 and LS174T-DLL3 cells); assay: cell-based or functional assay
人CD3蛋白 = target: T3, 人CD3蛋白; assay: ELISA, coated human CD3 protein
人DLL3蛋白(His标签) [3] = target: T4, 人DLL3蛋白(His标签); assay: ELISA, coated human DLL3 protein
人DLL3蛋白(His标签) [4] = target: T4, 人DLL3蛋白(His标签); assay: ELISA, coated human DLL3 protein 100 ng per well, anti-Fc HRP detection

Row | Binder | CTL EC50 (T cell dependent cytotoxicity on LS174T-DLL3 cells, human T cells, CCK8) [1] [µg/mL] | T cell activation (Jurkat-NFAT-CD3 luciferase reporter) with H82 target cells, EC50 [1] [µg/mL] | T cell activation (Jurkat-NFAT-CD3 luciferase reporter) with LS174T-DLL3 target cells, EC50 [1] [µg/mL] | CTL EC50 (T cell dependent cytotoxicity on LS174T-DLL3 cells, human T cells, CCK8) [2] [µg/mL] | T cell activation (Jurkat-NFAT-CD3 luciferase reporter) with H82 target cells, EC50 [2] [µg/mL] | T cell activation (Jurkat-NFAT-CD3 luciferase reporter) with LS174T-DLL3 target cells, EC50 [2] [µg/mL] | EC50 (人CD3蛋白) [µg/mL] | EC50 (人DLL3蛋白(His标签) [3]) [µg/mL] | EC50 (人DLL3蛋白(His标签) [4]) [µg/mL]
1 | B1 | 0.305 | ~4.02 | ~5.47 | 0.305 | ~4.02 | ~5.47 | 1.45 | 0.378 | 
2 | B2 | 0.104 | ~1.97 | ~2.7 | 0.104 | ~1.97 | ~2.7 | 0.892 | 0.267 | 
3 | B3 |  |  |  |  |  |  |  |  | 0.0295
